WO2018178074A1 (dated 2018)

How the values were obtained:
[1] = biological target: T1, human 4-1BB on cells (human, UniProt Q07011 24-255); assay: flow cytometry on activated human PBMC (legend of Figure 14)
T1 construct: also called human 4-1BB on NF-kB-luciferase human-4-1BB HeLa clone 26 cells

[2] = biological target: T2, human FAP on cells (human, UniProt Q12884 1-760); assay: flow cytometry on NIH/3T3-huFAP clone 39 cells
T2 construct: Natural FAP of the melanoma line WM266-4, or human FAP from vector pETR4921 in NIH/3T3 cells; also called huFAP on WM266-4 cells; human FAP on NIH/3T3-huFAP clone 39 cells

[3] = biological target: T3, human FAP (soluble, second analyte in SPR) (human, UniProt Q12884 26-760); assay: SPR Biacore T200, biotinylated human 4-1BB Fc(kih) on SA chip, construct 200 nM, then human FAP 500 nM
T3 construct: also called human FAP protein

T1 sequence (Q07011 24-255 limits assumed): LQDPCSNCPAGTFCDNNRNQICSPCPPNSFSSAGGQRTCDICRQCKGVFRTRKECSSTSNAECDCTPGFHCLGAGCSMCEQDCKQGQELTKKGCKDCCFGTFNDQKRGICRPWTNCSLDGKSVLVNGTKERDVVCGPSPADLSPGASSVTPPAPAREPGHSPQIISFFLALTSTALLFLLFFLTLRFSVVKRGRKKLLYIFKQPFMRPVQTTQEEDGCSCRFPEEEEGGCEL

B1: 25G7 x FAP 3+3 (bispecific antibody)
chain: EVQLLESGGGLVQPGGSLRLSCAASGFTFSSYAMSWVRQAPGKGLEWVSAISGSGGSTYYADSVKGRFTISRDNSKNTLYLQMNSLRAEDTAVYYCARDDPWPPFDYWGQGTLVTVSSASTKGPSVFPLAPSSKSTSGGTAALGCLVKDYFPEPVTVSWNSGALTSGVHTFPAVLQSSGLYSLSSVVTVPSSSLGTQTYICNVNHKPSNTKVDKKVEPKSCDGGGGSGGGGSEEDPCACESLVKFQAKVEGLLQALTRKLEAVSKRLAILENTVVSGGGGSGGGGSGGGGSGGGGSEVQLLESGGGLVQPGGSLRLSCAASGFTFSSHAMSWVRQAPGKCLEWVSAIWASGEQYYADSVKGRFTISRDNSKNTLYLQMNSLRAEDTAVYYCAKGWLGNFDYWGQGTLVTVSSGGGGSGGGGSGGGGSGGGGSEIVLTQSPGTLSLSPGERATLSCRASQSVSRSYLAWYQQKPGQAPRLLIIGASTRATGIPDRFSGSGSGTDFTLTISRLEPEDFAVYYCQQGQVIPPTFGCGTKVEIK
light: SSELTQDPAVSVALGQTVRITCQGDSLRSYYASWYQQKPGQAPVLVIYGKNNRPSGIPDRFSGSSSGNTASLTITGAQAEDEADYYCNSLDRRGMWVFGGGTKLTVRTVAAPSVFIFPPSDEQLKSGTASVVCLLNNFYPREAKVQWKVDNALQSGNSQESVTEQDSKDSTYSLSSTLTLSKADYEKHKVYACEVTHQGLSSPVTKSFNRGEC
notes: Trimer of three CMP chains, each paired with an anti-4-1BB light chain; no Fc; also called 3+3 25G7/28H1
[1]
  binding result: binds
[2]
  binding result: binds
[3]
  binding result: binds

B2: 25G7 huIgG1 P329G LALA (antibody, V domains shown)
VH: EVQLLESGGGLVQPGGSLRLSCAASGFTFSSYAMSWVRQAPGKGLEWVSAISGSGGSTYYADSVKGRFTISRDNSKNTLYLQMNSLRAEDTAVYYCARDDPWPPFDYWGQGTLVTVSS
VL: SSELTQDPAVSVALGQTVRITCQGDSLRSYYASWYQQKPGQAPVLVIYGKNNRPSGIPDRFSGSSSGNTASLTITGAQAEDEADYYCNSLDRRGMWVFGGGTKLTVLG
notes: Human IgG1 with Pro329Gly, Leu234Ala, Leu235Ala; also called 25G7 hulgGI P329G LALA; parental huIgG1 P329G LALA 25G7
[2]
  binding result: no binding

B3: 12B3 huIgG1 P329G LALA (antibody, V domains shown)
VH: QVQLVQSGAEVKKPGSSVKVSCKASGGTFSSYAISWVRQAPGQGLEWMGGIIPIFGTANYAQKFQGRVTITADKSTSTAYMELSSLRSEDTAVYYCARSEFRFYADFDYWGQGTTVTVSS
VL: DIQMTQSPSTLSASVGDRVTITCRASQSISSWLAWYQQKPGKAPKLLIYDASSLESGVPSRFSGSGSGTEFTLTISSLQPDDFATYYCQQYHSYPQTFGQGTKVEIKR
notes: Human IgG1 with Pro329Gly, Leu234Ala, Leu235Ala; also called 12B3 hulgGI P329G LALA; parental huIgG1 P329G LALA 12B3
[2]
  binding result: no binding
